Experimental data from the nanobody polyreactivity screen of Harvey et al. (2022).

experiment: yeast display, Sf9 membrane polyspecificity reagent, FACS + sequencing; frameworks hold sequencing errors
How it was run: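 Genes from sorted yeast were amplified by colony PCR, read by MiSeq 2 × 250 sequencing and filtered on CDR length. These cells carried a synthetic nanobody library in Saccharomyces cerevisiae BJ5465 and were sorted by FACS into low and high (top ~1%) gates on anti-HA and streptavidin fluorescence. Polyreactivity is labelled according to the gate of origin.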

Sequence	polyreactivity (PSR sort gate)
QVQLVESGGGLVQAGGSLRLSCAASGSTFDVYAMGWYRQAPGKERELVAVINTSGTRTYYADSVKGRFTISRDNAKNTVYLQMNSLKPEDTAVYYCNAGGHLEMNYWGQGTEVTVSS	low polyreactivity
QVQLVESGGGLVQAGGSLRLSCAASGSTFDVYAMGWYRQGPGKERELVATISNYGGDTYYADSVKGRFTISRDNAENTVYLQMNTLKPEDTAVYYCNAYLRFVDVSLDYQLLLEHDFWGQGTQVTVSS	low polyreactivity
QVQLVESGGGLVQAGGSLRLSCAASGSTFDVYTMGWYRQAPGKERELVATISGDDGSTYYADSVKGRFTISRDNAKNTVYLQMNSLKPEDTAVYYCAADYGGFPNYYSTGDYWGQGTQVTVSS	low polyreactivity
QVQLVESGGGLVQAGGSLRLSCAASGSTFDWYAMGWYRQAPGKERELVATIRYRGGTSYADSVKGRFTISRDNEKNTVYLQMNSLKPEDTAVYYCNAQLYIFDDSYNYWGFDYWGQGTQVTVSS	high polyreactivity
QVQLVESGGGLVQAGGSLRLSCAASGSTFDWYVMGWDRQAPGKERELVADITWSGDSTYYADSVKGRFTISRDNAKNTVYLQMNSLKPEDTAVYYCAADAYTLFYFYVYEYNYWGQGTQVTVSS	high polyreactivity
QVQLVESGGGLVQAGGSLRLSCAASGSTFDYNAMGGYRQAPGKERELVAAISRGGNTYYADSVKGRFTISRDNAKNTVYLQMNSLKPEDTAVYYCAKDSYGSYRFVRNRQKAYGYWGQGTQVTVSS	low polyreactivity
QVQLVESGGGLVQAGGSLRLSCAASGSTFDYNAMGWYRQAPGKERELVAAISSTGGSTYYADSVKGRFTISRDNAKNTVYLQMNSLKPEDTAVYFCARYYAIVSGYYDDGYWGQGTQVTVSS	high polyreactivity
QVQLVESGGGLVQAGGSLRLSCAASGSTFDYNAMGWYRQAPGKERELVATITSTGRTNYADSVKGRFTISRDNAKNTVYLQMNSLKPEDTAVYYCAKRTFFGKARGGPTYRLYYWGQGTQVTVSS	high polyreactivity
QVQLVESGGGLVQAGGSLRLSCAASGSTFDYNAMVWYRQAPGKESDLVVAITWGGDSTYADSVKGRFTISRDNAKNTVYLQMNSLKPEDTAVYYCAAEQDPWTSRYVFFASRYDYWGQGTQVTVSS	low polyreactivity
QVQLVESGGGLVQAGGSLRLSCAASGSTFDYNTMGWYRQAPGKERELVADITLRGASTYYADSVKGRFTISRDNAKNTVYLLMNSLKPEDTAVYYCNADYYWGTYANFDYWGQGTQVTVSS	low polyreactivity
QVQLVESGGGLVQAGGSLRLSCAASGSTFDYNTMGWYRQAPGTERELVADITWRGASTYYADSVKGRFTISRDNAKNTVYLQMNSLKPEDTAVYYCAADYYSATGSYAYDYWGQGTQVTVSS	low polyreactivity
QVQLVESGGGLVQAGGSLRLSCAASGSTFDYYAMGWYRQAPGKERELVGVISSSGGSTYYADSVKGGFTISRDNAKNTVYLQMNSLKPEDTAVYYCAALYRNYGSSYAYYYWGQGTQVTVSS	low polyreactivity
QVQLVESGGGLVQAGGSLRLSCAASGSTFDYYAMGWYRQTPGKERELVAAISWSGGSTYYADSVKGRFTISRDNAKNTVYLQMNSPKPEDTAVYYCATGTYFPRYKYFEGYYWGQGTQVTVSS	high polyreactivity
QVQLVESGGGLVQAGGSLRLSCAASGSTFDYYDMGWYRQAPGKERELVATVTSGGSTNYADSVKGRFTISRDNAKNTVYLQMNSLKPEDTAVYYCAADIGGDGEGYDYWGQGTQVTLSS	low polyreactivity
QVQLVESGGGLVQAGGSLRLSCAASGSTFDYYPMGWYRQAPGKERELVAGIDSAGSTNYADSVKGRFTISRDNAKNTVYLQMNSLKTGRYRGLYCNVGKTITTYAFPTFDYWGQGTQVTVSS	low polyreactivity
QVQLVESGGGLVQAGGSLRLSCAASGSTFDYYTMGWYRQAPGKERELVAAINSSGGRTYYADSVKGRFTISRDNAKNTDYLQMNSLKPEVTAVYYCARTRSVYGYDYWGQGTQVTVSS	high polyreactivity
QVQLVESGGGLVQAGGSLRLSCAASGSTFDYYYMGWYRQAPGKERELVAAISYSGTSTYYADSVKGRFTISRDNAKNTVYLQMNSQKPEDTAVYYCAKVFPDWYWYDYCGQGTQVTVSS	low polyreactivity
QVQLVESGGGLVQAGGSLRLSCAASGSTFEANAMGWYRQAPGKERELVAVITWTGGSTYYADSVKGRFTISRDNAKNTVYLQMNSLKPEDTAVYYCAADGVVPCRFFWPAHEYDYWGQGTQVTVSS	low polyreactivity
QVQLVESGGGLVQAGGSLRLSCAASGSTFEAYAMGWYRQAPGKERELVAAINFTGGRTYYADSVKGRFTISRDNAKNTVYLQINSLKPEDTAVYYCAARKWGVPYIDNDYWGQGTQVTVSS	low polyreactivity
QVQLVESGGGLVQAGGSLRLSCAASGSTFEDYTLGGYRQATGKERELVAAINWDGSRTYYADSVKGRFTISRDNAKNTVYLQMNSLKPEDTAVYDCAAHSAYHRRRMYYWGQGTQVTVSS	high polyreactivity

Sequence	polyreactivity (PSR sort gate)
QVQLVESGGGLVQAGGSLRLSCAASGSTFEGYAMGWYRQAPGKERELVAVISSGSITKYADSVKGRFTISRDNAKNTVYLQMNSLKPEDTAVYYCARKGGIIFASYLLGGYWGQGTQVTVSS	low polyreactivity
QVQLVESGGGLVQAGGSLRLSCAASGSTFEHYAMGWYRQAPGKERELVAAITRRGGSTYYADSVKGRFTISSDNAKNTVYLQMNSLKPEDTAVYYCYTVLRYSYYLPGYDYWGQGTQVTVSS	high polyreactivity
QVQLVESGGGLVQAGGSLRLSCAASGSTFENYVRGWYRQAPGKERELFAAISRGGGSTHYADSVKGRFTISRDNAKITVYLQKKSLKPEDTAVYYCAARYQTYVGSSSISTGIYYYWGQGTQVTVSS	low polyreactivity
QVQLVESGGGLVQAGGSLRLSCAASGSTFEPYAMGWYRQAPGKEREFVAAISGSGGSTYYADSVKGRFTISRDNAKNTVYLQMNSLKPEDTAVSYCAKDSFPWVDDDYWGQATQVTVSS	low polyreactivity
QVQLVESGGGLVQAGGSLRLSCAASGSTFESYAMGWYRQAPGKERELVAAISQNGGSTYYADSVKGRFTISRDNAKNTVYLQMNSLKPEDTAVYYCNADVYPYYRKPWMDYWGQGPQVTVSS	low polyreactivity
QVQLVESGGGLVQAGGSLRLSCAASGSTFESYDMGWYRPAPGKERELVAAIDWSGGITYYADSVKGRFTISRDNAKNTVYLQMNSLKPEDTAVYYCNADWFVRYPKRVYWSEYDYWGHGTQVTVSS	low polyreactivity
QVQLVESGGGLVQAGGSLRLSCAASGSTFEVYVMGWYRQAPGKERELVAGISKRGGRTYYADSVKGRFTISRDTEKNTVYLQLNSLKPEDTAVYYCAADAPGHEYYYWGQGTQVTVSS	high polyreactivity
QVQLVESGGGLVQAGGSLRLSCAASGSTFEWYAMGGYRQAPGKEREFVASISWSGGRTYYADSVKGRFTISRDNAKNTVYLQMNSLKPEDTAVYYCAAVAVPLQVPSGRAASKRRYGYWGQGTQVTVSS	high polyreactivity
QVQLVESGGGLVQAGGSLRLSCAASGSTFEYNAKGWYRQAPGKERELVASSTNYADSVKGRFTISRDNAKNTVYFQMNSLKPEDTAVYYCAARSLRYPYDYWGQGTQVTVSS	low polyreactivity
QVQLVESGGGLVQAGGSLRLSCAASGSTFEYNAMGWYRQAPGKERELVASSTNYADSVKGRFTISRDNAKNTVYLQMNSLKPEDTAVYYCAREQGVNRNHDYWGQGTQGTVSS	low polyreactivity
QVQLVESGGGLVQAGGSLRLSCAASGSTFEYNAMGWYRQAPGKERELVASSTNYAEAVKGRFTISRDNAKNTVYLQMNCLKPVDTAVYYCAREQGVNRNHDYWGQGTQVTVSS	low polyreactivity
QVQLVESGGGLVQAGGSLRLSCAASGSTFEYNAMGWYRQAPGKESELVASSTNYADSVKGRFTISRDNAKNTVYFQMNSLKPEDTAVYYCSREQGVNRNHDYWGQGTQVTVSS	low polyreactivity
QVQLVESGGGLVQAGGSLRLSCAASGSTFEYNDMGWYRQAPGKERELVAAISSGGDTNYADSVKGRFTISRDNAKITVYLQMNSLKPEDTAVYYCAADDWAPYRWYYGYAGYYYWGQGTLVTVSS	low polyreactivity
QVQLVESGGGLVQAGGSLRLSCAASGSTFEYYAMGWYRQAPGKERELVAAISRTGGRTYYADSVKGRFTISRDNAKNTVYLQMNSLKPEDTAVYYCNAVTRIGGGDYDDWGQGTQVTVSS	low polyreactivity
QVQLVESGGGLVQAGGSLRLSCAASGSTFEYYVMGWYRQAPGKERELVAAISGSGGGTYYADSVKGRFTISRDNAKNTVYLQMNSLKPEDTAVYYCAAVATQEKYDYWGQGTQVTVSS	low polyreactivity
QVQLVESGGGLVQAGGSLRLSCAASGSTFFANAMGWYRQAPGKERELVAAITSGGSTYYADSVKVRFTISRDNAKNTVYLQMNSLKPEDTAVYYCAAPLCGGARWGRWWLYDSWGQGTQVNVSS	low polyreactivity
QVQLVESGGGLVQAGGSLRLSCAASGSTFFAYAMGWYRQAPGKERELVAAITGRGSTYYADSVKGRFTISRDNAKNTVYLQMNSLKPEDTAVYYCAAQRSRRYYRLDYWGQGTQVTVSS	high polyreactivity
QVQLVESGGGLVQAGGSLRLSCAASGSTFFGNAMGWYRQAPGTERELVAAIRFSGVGTYYADSVKGRFTISLDNAKNTVYLQMNSLKPEDTAVYYSAAESYYKYYWGQGTQVTVSS	low polyreactivity
QVQLVESGGGLVQAGGSLRLSCAASGSTFFHYAMGWYRQAPGKERELVAAISGSGGSTYYADSVKGRFTISRDNAKNTVYLQMNSLKPEDTAVYYCNARVWHYTSRTTFDYWGQGTQVTVSS	low polyreactivity
QVQLVESGGGLVQAGGSLRLSCAASGSTFFIYAMGWYRQAPGKERELVAAITSGGTYADSVKGRFTISRDNAKNTVYLQMNSLKPEDTAVYYCNAGNNVVVDYDYWGQGTQVTVSS	low polyreactivity
